Measured values from publication PMC3677877 (PLoS ONE, 2013).

T1: mature RgpB from P. gingivalis HG66 (Porphyromonas gingivalis HG66, UniProt P95493 230-736)
T1 chain: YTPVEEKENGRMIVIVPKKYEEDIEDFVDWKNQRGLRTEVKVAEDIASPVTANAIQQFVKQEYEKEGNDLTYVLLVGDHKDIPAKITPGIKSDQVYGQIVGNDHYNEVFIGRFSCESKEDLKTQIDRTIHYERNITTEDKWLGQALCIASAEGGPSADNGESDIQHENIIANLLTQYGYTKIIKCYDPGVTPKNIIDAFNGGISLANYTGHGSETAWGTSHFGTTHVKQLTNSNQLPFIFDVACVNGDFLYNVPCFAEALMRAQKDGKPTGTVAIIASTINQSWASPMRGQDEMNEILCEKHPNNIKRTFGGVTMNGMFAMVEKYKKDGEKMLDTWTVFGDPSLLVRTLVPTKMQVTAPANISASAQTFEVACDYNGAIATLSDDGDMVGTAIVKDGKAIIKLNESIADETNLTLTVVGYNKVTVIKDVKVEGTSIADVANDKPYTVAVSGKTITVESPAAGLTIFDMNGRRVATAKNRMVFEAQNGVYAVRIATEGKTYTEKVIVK


Columns and labels:
[1] = biological target: rKgp: mature recombinant Kgp catalytic domain with the ABM1 motif (Gly681-Ala710) deleted (Porphyromonas gingivalis W50)
caspase 3 = caspase 3 (UniProt P42574)
caspase 3, sequence (P42574 whole entry): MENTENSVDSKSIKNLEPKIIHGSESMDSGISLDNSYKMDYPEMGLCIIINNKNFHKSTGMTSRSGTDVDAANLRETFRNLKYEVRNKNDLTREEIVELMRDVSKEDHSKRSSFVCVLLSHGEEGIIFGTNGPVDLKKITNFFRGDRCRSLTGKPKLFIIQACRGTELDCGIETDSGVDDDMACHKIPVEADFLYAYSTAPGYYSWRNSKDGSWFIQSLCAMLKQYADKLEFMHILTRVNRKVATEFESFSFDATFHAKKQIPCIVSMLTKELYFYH

papain = papain (UniProt P00784)
papain, sequence (P00784 134-345): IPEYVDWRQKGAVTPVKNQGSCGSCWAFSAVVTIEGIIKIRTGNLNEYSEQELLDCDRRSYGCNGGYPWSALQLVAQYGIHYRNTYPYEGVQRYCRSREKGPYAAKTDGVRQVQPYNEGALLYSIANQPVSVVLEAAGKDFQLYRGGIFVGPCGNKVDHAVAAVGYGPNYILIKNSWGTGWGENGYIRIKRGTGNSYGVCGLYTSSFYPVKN

[2] = biological target: T1, mature RgpB from P. gingivalis HG66; experiment: enzyme inhibition kinetics; details: both partners purified

Row | Molecule | % proteolytic activity of Kgp (0.0075 mg/mL) with RgpB-PP at 50 mg/L, substrate GPKNA (% proteolytic activity) [1] | % proteolytic activity of caspase 3 (60 Units) with RgpB-PP at 100 mg/L, substrate Ac-DEVD-pNa (200 µM) (% proteolytic activity) (caspase 3) | % proteolytic activity of papain (2.75 mg/L) with RgpB-PP at 100 mg/L, substrate BapNA (% proteolytic activity) (papain) | Ki [2] [nM]
1 | recombinant RgpB propeptide (thrombin-cleaved) (from UniProt P95493 25-222) (domain or fragment) | 118 | 133 | 103 | 
2 | recombinant RgpB propeptide (thrombin-cleaved) (domain or fragment, Text prints 25-222, but the reverse primer encodes FMNYEATR-stop (end at 229), and 209 aa = GSHM vector remnant + 205 residues (25-229). The GSHM remnant left after thrombin cleavage is omitted. …) QPAERGRNPQVRLLSAEQSMSKVQFRMDNLQFTGVQTSKGVAQVPTFTEGVNISEKGTPILPILSRSLAVSETRAMKVEVVSSKFIEKKDVLIAPSKGVISRAENPDQIPYVYGQSYNEDKFFPGEIATLSDPFILRDVRGQVVNFAPLQYNPVTKTLRIYTEIVVAVSETAEAGQNTISLVKNSTFTGFEDIYKSVFMNYEATR |  |  |  | 12
